The source of these data is the supplement of paper PMC10126150.

± gives the standard deviation of the averaged measurements.
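Note: ATP exposure 15 min at 22 °C before imaging.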

The series deals with ATP. The series can be described thus: switch fluorescence ratio, 500 uM ATP over buffer (Cy3 cluster intensity, sum of 5 cycles each) (fold (ratio)); higher = stronger signal-on switching upon ATP binding; sequences stand for … in TCGTCGGCAGCGTCAGATGTGTATAAGAGACAGTTTTTTTTTTTTTTTTTTTTTTTTT…TC. To be noted: aptamer strand: ATP DNA aptamer (quencher-CACCTGGGGGAGTATTGCGGAGGAAGG + anchor), 100 nM annealed; ATP concentration: 500 uM. The essentials:
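The fluorescence ratio divides summed target-cycle Cy3 intensity by summed buffer-cycle Cy3 intensity for each cluster and is averaged per switch-domain sequence. Cy3-labelled switching-strand clusters on a modified Illumina MiSeq flow-cell were annealed to 100 nM quencher-labelled ATP aptamer, then imaged in selection buffer and again after 15 min with 500 uM ATP at 22 °C. Five such cycles were run, with NaOH stripping and re-annealing between them, and clusters outside 100-1000 RFU were excluded.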
With TTTAGGGGAA, the switch fluorescence ratio amounted to 1.02 ± 0.003. In the case of CGATTTAGAG it was 0.988 ± 0.019; in that of GGGAGATATT, 0.985 ± 0.0099; in that of AGTGTAAGTA, 0.996 ± 0.03.

As to CGGGGATGCA, the switch fluorescence ratio stood at 1.03 ± 0.023. The result for TCCGGCTGGT reads 0.976 ± 0.024; that for ATCTAGGGTC, 1.01 ± 0.031; that for GAGGGATTTT, 1.02 ± 0.017. For CGGGAAGGCC, the switch fluorescence ratio amounted to 0.98791 ± 0.00011.

For the sequence TCGTAAAGGG, the switch fluorescence ratio was 1.01 ± 0.022. The result for TTGCTTCCGT reads 1.1 ± 0.084; that for TACAAGGTCA, 1.01 ± 0.0045; that for AGAGGATGTG, 1.01 ± 0.033. In the case of TCGGCCGTCC it was 1.056 ± 0.009. In the case of CGAAGGGACG it was 1.05 ± 0.081; in that of TGGTTATTGT, 0.974 ± 0.032. For TTTCAACCTT, the switch fluorescence ratio is 1.42 ± 0.071. For the sequence CGTGGGCGCC, the switch fluorescence ratio worked out at 0.972 ± 0.026. The result for GGTTGGAAAT reads 0.99 ± 0.06.

Regarding CTGGGCGGTT, the switch fluorescence ratio worked out at 0.9959 ± 0.0017. The result for TATTTTTGGG reads 0.99 ± 0.023; that for AATCGCTGGG, 0.988 ± 0.022; that for TGACATTCGA, 1.0321 ± 0.00051.

CGGCTTTGGA: the switch fluorescence ratio came to 1.056 ± 0.0019. Regarding TTGCTTACAT, the switch fluorescence ratio was determined as 1.02 ± 0.021. The result for TTCAGGGGGG reads 1.02 ± 0.033. The result for GTTTTTGTTT reads 1 ± 0.033. The result for GGGATTGTCT reads 0.948 ± 0.033; that for AAGTAAGTAG, 1.01 ± 0.021.

As for TATAGCTTGG, the switch fluorescence ratio worked out at 1 ± 0.029. In the case of GTTTTCGGGC it was 0.987 ± 0.067; in that of GGGATTATCA, 1.016 ± 0.0094.

Consider CAGGGACGGT, for which the switch fluorescence ratio was 0.975 ± 0.058. In the case of ATTATTAATT it was 0.973 ± 0.022. In the case of GATAGACGGT it was 1.01 ± 0.047. In the case of TTATTATACG it was 1.01 ± 0.054.

As for GTGGTCGGGC, the switch fluorescence ratio was determined as 1 ± 0.022.

As to GGGGTTTTGG, the switch fluorescence ratio stood at 0.995 ± 0.025. In the case of TTTATAAGGC it was 0.983 ± 0.061; in that of GGATTTTTTC, 1.02 ± 0.037; in that of AGGTGTGTGC, 0.97 ± 0.014. As for CGTTATACGG, the switch fluorescence ratio was found to be 1.043 ± 0.0037.

Consider GGTAAACGCG, for which the switch fluorescence ratio was determined as 0.977 ± 0.016. In the case of ACCAACTCAG it was 1.24 ± 0.037. On to GAGCTATGTG, for which the switch fluorescence ratio came to 1.03 ± 0.0011. In the case of CATCTTCGCT it was 1.0246 ± 7.4e-05.

GAAGATTTGG: the switch fluorescence ratio amounted to 0.981 ± 0.04. For the sequence TATTTTTGGC, the switch fluorescence ratio came to 1.01 ± 0.018. In the case of TTTGGATGGA it was 1.02 ± 0.023. In the case of AAATTTGCCA, the switch fluorescence ratio was determined as 0.9566 ± 0.0066. In the case of GTATTAATGT it was 1.01 ± 0.011.

For AAAGGGTAGT, the switch fluorescence ratio worked out at 0.9813 ± 0.0014. The result for GGTGTCATAT reads 0.984 ± 0.024.

As for TGACTGTTTG, the switch fluorescence ratio was found to be 0.984 ± 0.04.

In the case of TCGAGGGGAG, the switch fluorescence ratio is 0.978 ± 0.016. In the case of GTTTGGTGTG it was 0.975 ± 0.033; in that of AAACGATGTG, 0.985 ± 0.023. In the case of TGTGGGGGCT, the switch fluorescence ratio came out at 1 ± 0.026.

For the sequence TCGGGATAGG, the switch fluorescence ratio was 1.05 ± 0.018. Regarding TGCCCATGGG, the switch fluorescence ratio is 0.9956 ± 0.0045. AATATAGCGT: the switch fluorescence ratio was determined as 0.969 ± 0.021. In the case of TTTGGTACTT it was 0.986 ± 0.039; in that of TGGACCGGTT, 1.034 ± 0.0016; in that of TAGTATAG, 0.9745 ± 0.0045. As to AACTGGGGAA, the switch fluorescence ratio is 0.973 ± 0.016. The result for CGGATGTTAT reads 0.9626 ± 0.0096; that for ACAAAAAGGG, 1.02 ± 0.039. In the case of GGTTAAAGCG it was 1.02 ± 0.013; in that of GCTTTTGGGC, 0.963 ± 0.023. As to CGGGTATTAA, the switch fluorescence ratio was found to be 0.994 ± 0.032. The result for AGGGCCGGCG reads 1 ± 0.031; that for ATAAGGGCCA, 1.01 ± 0.036. In the case of AAGTCTGCAG it was 1.002 ± 0.01; in that of GTATGGGGTT, 0.9641 ± 0.0085; in that of ACTTGGTGGG, 0.986 ± 0.049.

CATTTCTGTT: the switch fluorescence ratio was found to be 1.004 ± 0.0047. The result for TGATTTTCTC reads 1.01 ± 0.048; that for GTTGGCCTCT, 1.02 ± 0.022. In the case of ATATGCCCTA, the switch fluorescence ratio is 0.9674 ± 0.0077. Consider TAGTATTGTA, for which the switch fluorescence ratio amounted to 1 ± 0.039. Regarding TCATGGAGGC, the switch fluorescence ratio stood at 1.02 ± 0.041. The result for GACCTAAGGT reads 0.988 ± 0.035; that for TTCAAGGATA, 0.986 ± 0.05. In the case of GTGTGAGGAG it was 1.05 ± 0.081; in that of CAGTAAAGGG, 0.9703 ± 0.0059. In the case of CCGTATGTTT, the switch fluorescence ratio was 1.11 ± 0.091. In the case of GGGCATATAG it was 1.61 ± 0.71. In the case of GGGCAATAAC it was 3.95 ± 0.13; in that of CTAATATGGG, 1.04 ± 0.021. In the case of AAGGTATCTG it was 1.03 ± 0.03.

Turning to GTTGTTGAGT, the switch fluorescence ratio turned out to be 0.997 ± 0.0024. The result for AATAATTGTG reads 1.02 ± 0.028; that for CACCCTTTGT, 0.9912 ± 0.0036; that for AGCTAGGTAA, 1.01 ± 0.029. In the case of CCCATGTTAA it was 0.993 ± 0.018; in that of TCATAGCGCC, 1.01 ± 0.045. The result for CGTATGGCCT reads 0.958 ± 0.01. For the sequence AAAACTGAGC, the switch fluorescence ratio amounted to 1.08 ± 0.031. The result for AACAGGGTGG reads 1.016 ± 0.0021; that for GGGAGGGAAG, 1.03 ± 0.031; that for TAAGGCAC, 1.04 ± 0.017. ATAATAGGG: the switch fluorescence ratio came out at 0.9773 ± 0.0019. The result for GATTGCCTGT reads 0.981 ± 0.029; that for GTTACACGGT, 1.01 ± 0.021. In the case of CGAGGTAGCT it was 1 ± 0.021; in that of TAGGAAAGAA, 1.03 ± 0.028; in that of CGATTGGGGC, 0.992 ± 0.013. In the case of ATATAATAGG it was 0.9778 ± 0.0022. As to GTTCTTACTT, the switch fluorescence ratio was found to be 0.973 ± 0.059. In the case of GCTGCGAATT it was 1.021 ± 0.01. The result for GGGTCCTTGT reads 1.01 ± 0.041. The result for TAAAGGCGGG reads 0.987 ± 0.023. On to ATGAGTGCTT, for which the switch fluorescence ratio was 0.9776 ± 0.0075. Consider TTTTAATAGC, for which the switch fluorescence ratio is 1 ± 0.028. As for GTTCGACCCG, the switch fluorescence ratio came out at 1.02 ± 0.032. Take TTCCGGGGGG: the switch fluorescence ratio turned out to be 1.02 ± 0.054. In the case of AACAGTGAGC, the switch fluorescence ratio is 1.039 ± 0.0056. Consider CTGGCGCGGG, for which the switch fluorescence ratio is 1.02 ± 0.042. The result for GTGAATCGGG reads 0.973 ± 0.032; that for CTAATAGGAG, 1.004 ± 0.0025.
